Results published in the DeepSol protein solubility set.

experiment: soluble on expression in E. coli; label from the status in PepcDB or PDB records

| Sequence | soluble on expression in E. coli |
| --- | --- |
| MNPERQETISPKNVPFQPVPTPNQQSLQSRMLESNQAVPDAFQKVAAWNHYNAVATPPIGVPQTARPPSNQSPHPNPPGYPYQSHQQQFHPLAIAFQQPFGLPQQVIYPPPPPGFTPHRVQVSPVGLLGPPGFFPQFAGSTTSQGNPSEVSVRTKSAEGTTGPIAPSITTKPTSTIQVAPPRDPVAPTTSSSGITKKPENGEFSLVKTISGHTKSVSVIKFSYCGKYLGTGSADKQIKVWNTVDMTYLQTLASHQLGINDFSWSSNSQFIASASDDTTVKIFDVISGACLRTMRGHTNYVFCCSFNPQSSLIASAGFDETVRVWDFKTGLCVKCIPAHSDPITSISYNHDGNTMATSSYDGCIRVWDAASGSCLKTLVDTDHAPVTFVCFSPNGKYLLSAQLDSSLKLWDPKKAKPLKYYNGHKNKKYCLFANMSVPLGKHIISGSEDGRILVWSIQTKQIVQILEGHTTPVLATDSHPTLNIIASGGLEPDNVIRIWRRN | not soluble |
| KQVENYDSWEDLVSSIDTIERKDDGTLEIYLTWKNGAISHHPSTITNKKCPQKMLQFYESHLTFRENE | soluble |
| GSTAIGINDTYSEVKSDLAQQKAEMELSDLIRKGYHKALVKLKLKKNTVDDISESLRQGGGKLNFDELRQDLKGKGHTDAEIEAIFTKYDQDGDQELTEHEHQQMRDDLEKEREDLDLDHSSL | soluble |
| MGSDKIHHHHHHNLKDSDRIFTNLYGRHDYRLKGAMARGDWHKTKEIILKGSDWILGELKTSGLRGRGGAGFPSGMKWGFMNKPFDGRPKYLVVNADEGEPGTCKDREIMRHDPHKLIEGCLIGGVAMGARAAYIYIRGEFYNEACILQEAINEAYKAGYLGKDCLGTGYNFDVFVHRGAGAYICGEETALIESLEGKQGKPRLKPPFPADIGLFGCPTTVTNVETVAVAPTICRRGGDWFASFGRERNRGTKLFCISGQVNNPCTVEEEMSVPLKDLIERHCGGVIGGWDNLLAIIPGGSSVPLMPKN | not soluble |
| MRLSDYNTPLSGMLAAQMGLQTTKQNLSNIHTPGYVRQMVNYESAGGSKGYAPEQRIGYGVQTLGVDRITDEVKTKQYNDQMSQFSYYAYMNSTLSRVESMVGTTGKNSLSSLMDGFFNAFREVAKNPEQSNYYDTLIAETGKFTSQVSRLAKNLDTVEAQTTEDIEAHVNEFNRLAASLAEANKKIGQAGTQVPNQLLDERDRIMTEMSKYADIEVSYEATNPNIASVRMNGVLTVNGQDTYPLQLQKDKKPMSVQISGTDIPLSGGTILSAIDTKAKITNYKDNLNEFVNSLKKQVNNTMKKELFVGEDAKKLELNPDFIKDISKMKISAETANNLAAITDKGYKDGLTYKQALDQFLVGVASDKSSVNAYQNIHKDLLEGIQQEKMSIEGVNMEEEMVNLMAFQKYFVANSKAITTMNEVFDSLFSIIR | not soluble |
| GSHMEDSTTNITKKQKWTVEESEWVKAGVQKYGEGNWAAISKNYPFVNRTAVMIKDRWRTMKRLGMN | soluble |
| MEPEFLYDLLQLPKGVEPPAEEELSKGGKKKYLPPTSRKDPKFEELQKVLMEWINATLLPEHIVVRSLEEDMFDGLILHHLFQRLAALKLEAEDIALTATSQKHKLTVVLEAVNRSLQLEEWQAKWSVESIFNKDLLSTLHLLVALAKRFQPDLSLPTNVQVEVITIESTKSGLKSEKLVEQLTEYSTDKDEPPKDVFDELFKLAPEKVNAVKEAIVNFVNQKLDRLGLSVQNLDTQFADGVILLLLIGQLEGFFLHLKEFYLTPNSPAEMLHNVTLALELLKDEGLLSCPVSPEDIVNKDAKSTLRVLYGLFCKHTQKAHRDRTPHGAPN | soluble |
| MRKLKMMLCVMMLPLVVVGCTSKQSVSQCVKPPPPPAWIMQPPPDWQTPLNGIISPSGNDWLEHHHHHH | not soluble |
| MSPLNLHTDTTPSLLTFSDVKSFEKIYTMYWARVYATCYNTIKEREVAKEMVQDIFKSLWERKDELEIKTSVEHYLVRAAKFKVFEYIRNKTNQKKHTACALEDYCSATNCTEDAILYSNLTEKVGVLVDRLPCQCRNVYTLSRTEGLTNKEIATRLLISERAVEQHITKALRFLRENLQEYRS | not soluble |
| MLPFDPSTRYDRQVRLWGEEGQASIGSTSACVLGSDSLATEILKSLVLAGVQSFYVVDDAKVEQADIGQNFFLHADDIGRSRAEATLEKLTELNPSVSGSASSQPPTALAMEDVEKLTTFSVVVAANQNEEIDTTFAKVLYNIRVPFICIKTFGLIGTIRICIKEHTIANSHEENPRPDLRLDAPFSKLIEMINETNLDEMTLEQLRHTPYILLHFKALEVFRKQRNDPEAFPSTTAERKELQAILMSFRRSSEESGTKDSENFDEAKAAVIRAFQRTTIGSSVKSILSSPQCSTSTRPFWLICEALRRFVTENNNLLPLRGTLPDMTSDSSRYTRLATLFHEKALSDAQEVLRLTREVEKERGVGDVISDDVCYRFCKNADRIRVQYGDVLDYNEETKAIVEKIRESNIDEETRNQKVDEATWMLLMRAVGRFQKEKGRYPGTNGVPVSIDAQDLKKRVEVLIREALKDEQDFTSISNKVTDTAIAEICRFGAAELHVISSYVGGIAAQEIIKLATNQYVPIDNTFIFDGHTQESATFKF | not soluble |
| MGSDKIHHHHHHMEKEIAIITLHGMGDYKPNYFEALKNQLEKKLGTKWDKIAFEPVQYQPILQQNQIKIWQRMNSYPLDGSILRRFLLFGFSDAGSLEYSARSKVSVQYIEVQKEIMQALDKLYVELGNNDKPVIIIAQSLGCQVISNYIWDAKHDSGIFNGLEPDASAQLKSFRRLNSCVHLLTTGCNIPMFVAGLNPIEAIQKPNNEFTWFNYYDRDDVLGWPLSPLSDSYGALVKDHEINAGGIFSSWNPWSHGQYWTDKDVLNSLIDRIRRYI | not soluble |
| MSLVKKGAALLMVATMALSSAACSNSKTEGKPEVQAKVAPVEKNGDKTVIRFWHAMGGKTQGVLDGLVADYNKSQNKYEIKAEFQGTYEESLTKFRTMSATKEAPALVQSSEITTKYMIDSKKITPIDSWIKKDKYDTSKLEKAITNYYSVDGKMYSMPFNSSTPVLIYNKDAFAKAGLDPEKAPKTYAELQEAAKKLTIKEGGNVKQYGFSMLNYGWFFEELLATQGALYVDNENGRKDAAKKAVFNGKEGQKVFGMLDDLNKAGALGKYGASWDDIRAAFQSGQVAMYLDSSAGVRDLIDASKFNVGVSYIPYPEDSKQNGVVIGGASLWMTNMVSEETQQGAWDFMKYLTKPDVQAKWHTATGYFSINPDAYNEPLVKEQYEKYPQLKVTVDQLQATKQSPATQGALISVFPESRDAVVKALEAMYDGKNSKEALDEAAKATDRAISISARTSQK | not soluble |
| MSWEGFKKAINRAGHSVIIKNVDKTIDKEYDMEERRYKVLQRAGEALQKEAKGFLDSLRAVTASQTTIAEVISNLYDDSKYVAGGGYNVGNYYLQCVQDFDSETVKQLDGPLRETVLDPITKFSTYFKEIEEAIKKRDHKKQDFDAAKAKVRRLVDKPAKDASKLPRAEKELSLAKDIFENLNNQLKTELPQLVSLRVPYFDPSFEALIKIQLRFCTDGYTRLAQIQQYLDQQSRDDYANGLLDTKIEELLGQMTSLDICALGIK | not soluble |
| MQHLTERMTQIAKLLNSSANNPDIDIPDFLTEIKDYSEFSVTDENGTYLHWDKFRRIHTEDTRMKWRAVKESRKKIQKPIDFPFEHQFWFCIPDSLQARLHLIDKSCGSSIGTSSLGGFGRSEQNRFLLKSLIMEEAITSAQLEGAATTRKVAKDMLKSQRKPKTKDEIMIVNNYHLMKKAVELKNTPLSVEMILDLHRIATSNAIENKAEPGQFRQDDEIFIADINGNSLYQPPPHGQVHTLMEEVCAFANNTYDGVENPFIHPVVQAIILHFLIGYIHPFGDGNGRTARALFYWFMLKNGYWLFEYISISRLLKNAPAQYAKSYLYAETDDLDLTYFIYYQCDIIKRAVADLEHYISDKQKHQQEFKAAIAQYTEKIGKLNQRQIGILQKAVEESGKIFTAQEIANQYGISLNTARSDLSKLGEYRFLVPFKSGNALEYVAPQDLLERLEKK | not soluble |
| MSLTNDERILSWNETPSKPRYTPPPGAIDAHCHVFGPMAQFPFSPKAKYLPRDAGPDMLFALRDHLGFARNVIVQASCHGTDNAATLDAIARAQGKARGIAVVDPAIDEAELAALHEGGMRGIRFNFLKRLVDDAPKDKFLEVAGRLPAGWHVVIYFEADILEELRPFMDAIPVPIVIDHMGRPDVRQGPDGADMKAFRRLLDSREDIWFKATCPDRLDPAGPPWDDFARSVAPLVADYADRVIWGTDWPHPNMQDAIPDDGLVVDMIPRIAPTPELQHKMLVTNPMRLYWSEEMEGHHHHHH | soluble |
| MGSSHHHHHHSSGLVPRGSSRRKSNCVKEVEKLQEKREKRRLQQQELREKRAQDVDATNPNYEIMCMIRDFRGSLDYRPLTTADPIDEHRICVCVRKRPLNKKETQMKDLDVITIPSKDVVMVHEPKQKVDLTRYLENQTFRFDYAFDDSAPNEMVYRFTARPLVETIFERGMATCFAYGQTGSGKTHTMGGDFSGKNQDCSKGIYALAARDVFLMLKKPNYKKLELQVYATFFEIYSGKVFDLLNRKTKLRVLEDGKQQVQVVGLQEREVKCVEDVLKLIDIGNSCRTSGQTSANAHSSRSHAVFQIILRRKGKLHGKFSLIDLAGNERGADTSSADRQTRLEGAEINKSLLALKECIRALGRNKPHTPFRASKLTQVLRDSFIGENSRTCMIATISPGMASCENTLNTLRYANRVKEL | soluble |
| MGSDKIHHHHHHMKKKYVTIRDIAEKAGVSINTVSRALNNKPDISEETRRKILKIAQELGYVKNATASSLRSKQTNIVGVIIADSANPFYAEVLKGIEAASRKYGYQIMLMNTERIYENEEKAIEVLLQRRVDGLLITPVQDRSDDIKTLIERKVPFVIVGRHFEELEVDEIHSDEVKGGYLATRHLIERGRKNIIMISGYLFKSAAYMRLEGYRKALKEYGIPFSEKMIIETDIDIESGYRAMREAIEKGLEFEAVFCYNDLLAFGVIKALKECGYRIPEDVAVVGYDDIVYSSFICPSLTTVRIKKFEMGFEAFRMLLQRLKGRRKKRKRVILDVELVVRESG | not soluble |
| MKRFLLLLCALLSFSALAAPKADLWPYWQQSNGVNQTSISHLEWQQLLDSYLVTRGDNTLFRYNQVSFADKTKLKQYIQRLASLNPLQYRQAEQYAYWVNLYNALTVHLILDNYPITSITKLGGLFSFGPWDQGVIIINGKSLTLNDIEHRILRPIWQDPRTHYAVNCASLGCPNLQTQAFTAENTQTLLESAAKTFINSKKGVSIEGDTAKISSIYEWFAVDFGGEKEVFNHIRKYAPQYNHFSGRVKYDYDWSLNQADLEHHHHHH | not soluble |
| MVWMVELKEPFATLWRGKDPFEEVKTLQGEVFRELETRRTLRFEMAGKSYFLKWHRGTTLKEIIKNLLSLRMPVLGADREWNAIHRLRDVGVDTMYGVAFGEKGMNPLTRTSFIITEDLTPTISLEDYCADWATNPPDVRVKRMLIKRVATMVRDMHAAGINHRDCYICHFLLHLPFSGKEEELKISVIDLHRAQLRTRVPGRWRDKDLIGLYFSSMNIGLTQRDIWRFMKVYFAAPLKDILKQEQGLLSQAEAKATKIRERTIRKSL | not soluble |
